B1: Guanine nucleotide-binding protein alpha-4 subunit (Dictyostelium discoideum (Slime mold)), P34042 (parent)
chain: MRFKCFGSEETEQSSKIDKSIETDRRKLRKDVKLLLLGPGESGKSTIFKQMKIIQEDGGYSVEELLEYRAFVYSNCISQMEALLTASAKLNIELEVENKQRAANVLRRTIGNEPWLLLAADIKHLWEDKGIKETYAQKDKHFQLNDSAAYFFDNIDRYMREDFVPNEQDVLRCRVRTTGIQESEFTFDKIRLKIVDVGGQRSQRRKWIHCFDCVTAVIFVAAMSDYDQVLREDESVNRTRESLALFKEIVNCDYFKETPIVLFLNKKDLFKEKLKRVPLQSCFSDYTGPNKYKDAAMFIQSQYLAQGPSPRTIYTHATCAVDTENIKFVFRAVRQTILSQALEHF
partner: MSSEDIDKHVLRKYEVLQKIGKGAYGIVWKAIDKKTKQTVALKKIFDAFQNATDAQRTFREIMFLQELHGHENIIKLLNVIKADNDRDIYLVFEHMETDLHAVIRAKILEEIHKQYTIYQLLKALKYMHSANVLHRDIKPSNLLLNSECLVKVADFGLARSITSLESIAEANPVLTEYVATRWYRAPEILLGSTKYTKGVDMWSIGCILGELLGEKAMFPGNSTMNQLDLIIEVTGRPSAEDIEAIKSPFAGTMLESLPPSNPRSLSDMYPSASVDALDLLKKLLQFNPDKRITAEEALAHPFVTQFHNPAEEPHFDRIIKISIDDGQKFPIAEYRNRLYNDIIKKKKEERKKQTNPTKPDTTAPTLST

Variants of: B1
Settings: with erk2_dicdi erkB

Variant | effect of a mutation on the interaction
R107E;R108E | decreasing interaction
Q200L | decreasing interaction

Source: IntAct's records for PubMed 19765570
